Changes are numbered by the printed parent chain.
T1: purified PSCA-Fc (human, UniProt O43653 12-83, limits assumed)
T1 construct: not shown: Fc part
T1 sequence: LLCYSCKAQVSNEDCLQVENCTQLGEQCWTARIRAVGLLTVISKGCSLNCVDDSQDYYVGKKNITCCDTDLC

B1: A11 anti-PSCA minibody (other)
chain: DIQLTQSPSTLSASMGDRVTITCSASSSVRFIHWYQQKPGKAPKRLIYDTSKLASGVPSRFSGSGSGTDFTLTISSLQPEDFATYYCQQWGSSPFTFGQGTKVEIKGSTSGGGSGGGSGGGGSSEVQLVEYGGGLVQPGGSLRLSCAASGFNIKDYYIHWVRQAPGKGLEWVAWIDPENGDTEFVPKFQGRATMSADTSKNTAYLQMNSLRAEDTAVYYCKTGGFWGQGTLVTVSSEPKSCDKTHTCPPCGGGSSGGGSGGQPREPQVYTLPPSRDELTKNQVSLTCLVKGFYPSDIAVEWESNGQPENNYKTTPPVLDSDGSFFLYSKLTVDKSRWQQGNVFSCSVMHEALHNHYTQKSLSLSPGK
notes: also called A11 minibody; variant A11
B2: C5 anti-PSCA minibody (other)
chain: B1 chain with T5I, T10S, M15V, G91S, Y131S, M194I, A203V, E213K
notes: also called C5 minibody; variant C5
B3: A2 anti-PSCA minibody (other)
chain: DIQLTQSPSSLSASVGDRVTITCSASSSVRFIHWYQQKPGKAPKRLIYDTSKLASGVPSRFSGSGSGTDFTLTISSLQPEDFATYYCQQWGSSPFTFGQGTKVEIKGSTSGGGSGGGSGGGGSEVQLVESGGGLVQPGGSLRLSCAASGFNIKDYYIHWVRQAPGKGLEWVAWIDPEYGDSEFVPKFQGRATMSADTSKNTAYLQMNSLRAEDTAVYYCKTGGFWGRGTLVTVSSEPKSCDKTHTCPPCGGGSSGGGSGGQPREPQVYTLPPSRDELTKNQVSLTCLVKGFYPSDIAVEWESNGQPENNYKTTPPVLDSDGSFFLYSKLTVDKSRWQQGNVFSCSVMHEALHNHYTQKSLSLSPGK
notes: also called A2 minibody; variant A2

What follows are binders tested against T1, purified PSCA-Fc (assay: competition ELISA, wells coated with purified PSCA-Fc; reference is the parental 2B3 minibody).
Description: The ranking of the four minibodies was determined by competition ELISA and flow cytometry (FIG. 5).
Competition ELISA: PSCA relative binding affinity for the minibodies was determined by competition ELISA in which microtiter plate wells were coated with purified PSCA-Fc (Olafsen T, et al. J. Irrununotherapy 2007: 30:396).

Row | improvement of relative affinity compared to the parental [fold] | Binder
1 | 3 | B1
2 | 1.9 | B2
3 | 4.4 | B3

Reference: patent US20150239983A1 (University of California, published 2015)
